# Measured values as given in patent US10376603B2, “Engineered fluorinated biomaterials” (New York University, priority 2015, dated 2019).
# B1: CE2-RGD-TFL: fluorinated protein block copolymer, SEQ ID NO:18: COMPcc domain flanked by RGD linkers plus elastin-like domain; all 11 leucines as 5,5,5-trifluoroleucine (protein)
# chain: MRGSHHHHHHGSACELAARGDATATATATAACGDLAPQMLRELQETNAALQDVRELLRQQVKEITFLKNTVMESDASGLQAARGDATATATATAVDKPIAASAVPGVGVPGVGVPGFGVPGVGVPGVGVPGVGVPGVGVPGFGVPGVGVPGVGVPLEGSGTGAKLN
# modifications: all leucines as 5,5,5-trifluoroleucine
# notes: all 11 leucines as 5,5,5-trifluoroleucine
# Assays:
# Format in all cases: physicochemical
# [1] = Doxorubicin loading/encapsulation by gel filtration and absorbance at 485 nm; details: 100 μM free doxorubicin, 4° C., 2 hours
# Method: A mixture of 100 μM free doxorubicin (DOX) (see the extraction method below) and either CE2-RGD or CE2-RGD-TFL and standards (100 μM, 75 μM, 50 μM, 25 μM, 10 μM, 5 μM and 0 μM) were incubated at 4° C. for 2 hours in the dark. After this incubation period, the mixtures were subjected to G-25 Sephadex (Sigma-Aldrich) gel filtration chromatography with fifteen elutions of 50 mM Na2HPO4, 0.5 M NaCl, pH 8.0 at room temperature. The eluted fractions were subjected to absorbance readings ranging from 420-600 nm (Molecular Devices Spectramax M2). The eluted fraction with highest absorbance reading at 485 nm was incorporated in the standard curve trendline equation to determine the total concentration of DOX bound to the protein. That protein sample was also subjected to the BCA assay enhanced protocol to determine the total protein concentration.
# Extraction of DOX from a doxorubicin-HCl (DOX-HCl) was required to achieve free hydrophobic doxorubicin for pore encapsulation. […] The final concentration of free DOX was determined by generating a standard curve from absorbance of DOX-HCl from 420-600 nm and incorporating the free DOX into the trendline equation. The absorbance measurement for free DOX concentration determination was taken at 485 nm.
# [2] = Transmission electron microscopy of particles; details: 0.5 mg/mL
# Method: Transmission electron microscopy (TEM) experiments were undertaken to visualize and confirm particle sizes. The CE2-RGD-TFL (0.5 mg/mL) was heated to 20° C. or 50° C. for 1.5 hours followed by application of the protein onto copper square mesh TEM grids and 1% uranyl acetate negative staining. The TEM grids were imaged using a FEI Titan Halo 300 kV electron microscope.
# [3] = UV-Vis temperature transition (Tt) at 320 nm; details: 50 mM Na2HPO4, 0.5 M NaCl, pH 8.0
# Method: Proteins were characterized for their temperature transition (Tt) behavior at a wavelength of 320 nm using a UV-Vis Cary-50 (Varian Inc., Cary, N.C.) equipped with a TC125 temperature regulator (Quantum Northwest, Liberty Lake, Wash.). Samples were heated at a rate of 1° C./minute from 15° C. to 85° C. The Tt was determined by taking the first derivative of the normalized absorbance (320 nm) as a function of temperature.
# [4] = Circular dichroism secondary structure
# Method: Circular dichroism (CD) spectroscopy was used to confirm the secondary structure. This was accomplished using a Jasco J-815 CD spectrometer with a PTC-423 S single position Peltier temperature control system. For CD experiments assessing the protein structure alone, protein concentrations were kept constant at 0.200 mg/mL in of 50 mM Na2HPO4, 0.5 M NaCl, pH 8.0. The wavelength spectrum was measured over the range of 200-300 nm with a bandwidth (step size) of 1 nm. The scanning mode was continuous at 20 nm/minute. All wavelength CD runs were conducted at 4° C.
# In terms of calculations for CD analysis, molar residue ellipticity (θMRE) was calculated from ellipticity (θ) using the following equation: (1) θMRE=θ/(10*Protein Conc.*Path Length*Length of Sequence)
# [5] = Dynamic light scattering as a function of temperature; details: doxorubicin loaded versus unloaded
# Method: Dynamic light scattering (DLS) measurements were performed on a Zetasizer Nano Series model Nano ZS90 in a type 21 quartz cuvette with the applied settings: material protein (refractive index 1.450), absorption 0.001, dispersant PBS with a viscosity of 1.0200 cP and refractive index of 1.335. Measurements were taken in triplicates, conducting 10 runs for each measurement, with a delay time of 2 seconds. Approximately, 1.0 mL of 0.5, 0.75 or 1.0 mg/mL CE2-RGD-TFL or CE2-RGD in 50 mM Na2HPO4, 0.5 M NaCl, pH 8.0 was then added to the cell.
molecule,measurement,setting,value
B1,available doxorubicin encapsulated upon saturation,[1],49.1%
same,doxorubicin loading per milligram of protein,[1],29.90±2.68 μg per milligram
same,particle appearance (TEM),[2]; 50° C. for 1.5 hours,amorphous aggregates of no discernible uniformity in size
same,particle diameter (TEM),[2]; 1.5 hour incubation at 20° C.,30 nm
same,Tt (transition temperature),[3]; Conc. 0.20 mg/mL,52.04 ± 0.84 °C
same,Tt (transition temperature),[3]; Conc. 0.50 mg/mL,47.87 ± 0.72 °C
same,Tt (transition temperature),[3]; Conc. 0.75 mg/mL,46.36 ± 0.03 °C
same,Tt (transition temperature),[3]; Conc. 1.00 mg/mL,45.71 ± 0.51 °C
same,secondary structure (circular dichroism) versus CE2-RGD,"[4]; 0.200 mg/mL, 4° C.",less structure
same,secondary structure (circular dichroism) upon loading of doxorubicin,[4]; doxorubicin loaded versus unloaded,increase in secondary structure
same,onset of temperature-driven coacervation (DLS) upon loading of doxorubicin,[5],delay in the onset of temperature-driven coacervation
